The values that follow are results of earlier work, collected in article PMC7602216.

In the series the target is UBA5 UIS (Homo sapiens) (UniProt Q9GZZ9). The series can be described thus: ITC.

Consider UFM1 (from UniProt P61960), for which the equilibrium dissociation constant (Kd) was 8 µM.
